In US20060154859A1:

Molecular target: mouse LEPRb (mouse), P48356
Assay: cell-based or functional assay

mouse LEPRb (mouse), P48356, sequence (P48356 22-1162): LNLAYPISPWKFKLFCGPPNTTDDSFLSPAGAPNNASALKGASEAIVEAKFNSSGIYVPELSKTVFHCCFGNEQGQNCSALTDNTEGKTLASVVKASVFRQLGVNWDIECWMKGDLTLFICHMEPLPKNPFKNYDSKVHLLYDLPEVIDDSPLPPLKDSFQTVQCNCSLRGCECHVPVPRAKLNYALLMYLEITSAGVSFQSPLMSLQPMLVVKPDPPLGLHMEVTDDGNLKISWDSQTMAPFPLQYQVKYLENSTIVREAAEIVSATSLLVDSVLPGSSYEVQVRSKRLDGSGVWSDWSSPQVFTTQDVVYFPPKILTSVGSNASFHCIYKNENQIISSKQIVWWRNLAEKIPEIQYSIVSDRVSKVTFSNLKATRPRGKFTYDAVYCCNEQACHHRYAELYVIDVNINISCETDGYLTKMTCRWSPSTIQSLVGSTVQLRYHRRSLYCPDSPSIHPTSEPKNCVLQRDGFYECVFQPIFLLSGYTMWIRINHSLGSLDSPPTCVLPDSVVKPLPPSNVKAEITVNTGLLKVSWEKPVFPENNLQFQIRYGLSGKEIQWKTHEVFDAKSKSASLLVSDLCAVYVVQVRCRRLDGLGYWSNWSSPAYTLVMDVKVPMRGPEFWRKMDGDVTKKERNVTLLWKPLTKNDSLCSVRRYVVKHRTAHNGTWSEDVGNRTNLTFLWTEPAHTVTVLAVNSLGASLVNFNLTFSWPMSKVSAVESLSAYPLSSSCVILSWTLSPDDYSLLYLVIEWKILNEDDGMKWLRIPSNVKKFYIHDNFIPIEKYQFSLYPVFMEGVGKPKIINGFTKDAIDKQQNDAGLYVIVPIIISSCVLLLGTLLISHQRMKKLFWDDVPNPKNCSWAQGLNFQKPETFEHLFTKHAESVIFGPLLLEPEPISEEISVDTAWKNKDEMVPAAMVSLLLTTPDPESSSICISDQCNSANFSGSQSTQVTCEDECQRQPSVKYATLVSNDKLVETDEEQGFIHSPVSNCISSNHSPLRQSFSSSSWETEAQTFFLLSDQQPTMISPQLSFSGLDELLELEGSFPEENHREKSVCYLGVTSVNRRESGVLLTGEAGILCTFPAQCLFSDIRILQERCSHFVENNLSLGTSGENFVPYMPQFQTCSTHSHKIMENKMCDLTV

inhibition of leptin-inducible transactivation of luciferase reporting gene in CHO cells transiently transfected with leptin receptor, stimulated with 6.25 nM human leptin: 10 nM
B1: human leptin L39A/D40A/F41A/I42A mutant, P41159 22-167 (ligand)
chain: VPIQKVQDDTKTLIKTIVTRINDISHTQSVSSKQKVTGAAAAPGLHPILTLSKMDQTLAVYQQILTSMPSRNVIRISNDLENLRDLLHVLAFSKSCHLPWASGLETLDSLGGVLEASGYSTEVVALSRLQGSLQDMLWQLDLSPGC
